Target: T1, hK2 (Homo sapiens, UniProt P20151)
T1 construct: made in house
Assay: Inhibition of hK2 by protease inhibitors (substrate H-Pro-Phe-Arg-AMC)
Assay type: biochemical
Settings: for Activity (%) of hK2, percentage of inhibitor-free control: 10 minutes of incubation, 8.3 nM hK2, 90 μM substrate
Experimental: Activity of hK2 (1.6 pmol) was monitored using the substrate H-Pro-Phe-Arg-AMC (SEQ ID NO: 55) (90 μM). Inhibitors, at commonly used concentrations, and hK2 (8.3 nM) were mixed and proteolysis of 90 μM H-Pro-Phe-Arg-AMC (SEQ ID NO: 55) was followed up to 20 minutes, starting directly or 10 minutes after mixing the enzyme with various inhibitors. Inhibition was evaluated by comparison with […] controls.
The proteolytic activity is expressed in percentage of inhibitor-free control after 10 minutes of incubation.
Therefore, PPACK can be used to obtain fast irreversible inhibition of hK2.

T1 sequence (P20151 25-261): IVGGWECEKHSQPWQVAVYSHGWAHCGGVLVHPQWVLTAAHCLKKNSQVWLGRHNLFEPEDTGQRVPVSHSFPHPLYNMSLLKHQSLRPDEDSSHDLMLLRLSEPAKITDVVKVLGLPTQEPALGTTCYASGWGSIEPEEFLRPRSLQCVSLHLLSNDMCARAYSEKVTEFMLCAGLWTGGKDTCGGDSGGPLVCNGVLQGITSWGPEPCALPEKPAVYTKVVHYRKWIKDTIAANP

Molecule	inhibition of hK2 (in words) (8 nM hK2, 90 μM substrate)	Activity (%) of hK2, percentage of inhibitor-free control (inhibitor 0.08 μM) [%]	Activity (%) of hK2, percentage of inhibitor-free control (inhibitor 4 μM) [%]	inhibition of the hK2 activity (in words) (100-fold molar excess, 20 minute measurement time)	Activity (%) of hK2, percentage of inhibitor-free control (inhibitor 0.8 μM) [%]	Activity (%) of hK2, percentage of inhibitor-free control (inhibitor 0.016 μM) [%]
SLPI: protease inhibitor present in the prostate (protein) SGKSFKAGVCPPKKSAQCLRYKKPECQSDWQCPGKKRCCPDTCGIKCLDPVDTPNPTRRKPGKCPVTYGQCLMLNPPNFCEMDGQCKRDLKCCMGMCGKSCVSPVKA	inhibited hK2 weakly	92	35			
ACT: α1-antichymotrypsin purified from human blood plasma (protein) HPNSPLDEENLTQENQDRGTHVDLGLASANVDFAFSLYKQLVLKAPDKNVIFSPLSISTALAFLSLGAHNTTLTEILKGLKFNLTETSEAEIHQSFQHLLRTLNQSSDELQLSMGNAMFVKEQLSLLDRFTEDAKRLYGSEAFATDFQDSAAAKKLINDYVKNGTRGKITDLIKDLDSQTMMVLVNYIFFKAKWEMPFDPQDTHQSRFYLSKKKWVMVPMMSLHHLTIPYFRDEELSCTVVELKYTGNASALFILPDQDKMEEVEAMLLPETLKRWRDSLEFREIGELYLPKFSISRDYNLNDILLQLGIEEAFTSKADLSGITGARNLAVSQVVHKAVLDVFEEGTEASAATAVKITLLSALVETRTIVRFNRPFLMIIVPTDTQNIFFMSKVTNPKQA				no inhibition	100	
PCl: protein C inhibitor (PCI), plasma protease inhibitor (serpin) (protein) HRHHPREMKKRVEDLHVGATVAPSSRRDFTFDLYRALASAAPSQSIFFSPVSISMSLAMLSLGAGSSTKMQILEGLGLNLQKSSEKELHRGFQQLLQELNQPRDGFQLSLGNALFTDLVVDLQDTFVSAMKTLYLADTFPTNFRDSAGAMKQINDYVAKQTKGKIVDLLKNLDSNAVVIMVNYIFFKAKWETSFNHKGTQEQDFYVTSETVVRVPMMSREDQYHYLLDRNLSCRVVGVPYQGNATALFILPSEGKMQQVENGLSEKTLRKWLKMFKKRQLELYLPKFSIEGSYQLEKVLPSLGISNVFTSHADLSGISNHSNIQVSEMVHKAVVEVDESGTRAAAATGTIFTFRSARLNSQRLVFNRPFLMFIVDNNILFLGKVNRP		0				50
